Measured values from US20180344812A1 (Scripps Research, published 2018).
Numbering of substitutions follows the chain as printed. Where two headings read alike, the source gives them in different places. Bridges are numbered along the chain shown (N, C = ends). Where no end group is shown, it is not given here. [ ]: non-standard residue; d: D form. L1 = C4 bis(bromoacetamide) staple without lipid; L3 = myristic acid-PEG-PEG-ornithine staple; L5 = C18 diacid-Lys-PEG2-ornithine staple; L2 = myristic acid-PEG-ornithine staple; L6 = made as L5 but on Rink amide resin

T1: human Glucose-dependent insulinotropic polypeptide receptor (GIPR) (human, UniProt P48546 22-466)
T1 sequence (looked up): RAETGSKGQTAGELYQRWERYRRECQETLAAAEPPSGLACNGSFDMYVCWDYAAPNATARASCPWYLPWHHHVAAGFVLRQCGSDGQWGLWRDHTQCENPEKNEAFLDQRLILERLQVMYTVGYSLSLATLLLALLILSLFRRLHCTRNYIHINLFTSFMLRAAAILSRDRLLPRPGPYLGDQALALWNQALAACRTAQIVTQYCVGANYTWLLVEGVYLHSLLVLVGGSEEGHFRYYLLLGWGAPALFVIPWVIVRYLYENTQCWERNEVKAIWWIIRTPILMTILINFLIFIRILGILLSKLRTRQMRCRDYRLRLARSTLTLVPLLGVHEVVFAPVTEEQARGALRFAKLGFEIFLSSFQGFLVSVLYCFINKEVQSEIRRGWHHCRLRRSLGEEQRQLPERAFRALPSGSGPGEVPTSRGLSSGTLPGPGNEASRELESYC

T2: human Glucagon-like peptide 2 receptor (GLP-2R) (human, UniProt O95838 1-553)
T2 sequence (looked up): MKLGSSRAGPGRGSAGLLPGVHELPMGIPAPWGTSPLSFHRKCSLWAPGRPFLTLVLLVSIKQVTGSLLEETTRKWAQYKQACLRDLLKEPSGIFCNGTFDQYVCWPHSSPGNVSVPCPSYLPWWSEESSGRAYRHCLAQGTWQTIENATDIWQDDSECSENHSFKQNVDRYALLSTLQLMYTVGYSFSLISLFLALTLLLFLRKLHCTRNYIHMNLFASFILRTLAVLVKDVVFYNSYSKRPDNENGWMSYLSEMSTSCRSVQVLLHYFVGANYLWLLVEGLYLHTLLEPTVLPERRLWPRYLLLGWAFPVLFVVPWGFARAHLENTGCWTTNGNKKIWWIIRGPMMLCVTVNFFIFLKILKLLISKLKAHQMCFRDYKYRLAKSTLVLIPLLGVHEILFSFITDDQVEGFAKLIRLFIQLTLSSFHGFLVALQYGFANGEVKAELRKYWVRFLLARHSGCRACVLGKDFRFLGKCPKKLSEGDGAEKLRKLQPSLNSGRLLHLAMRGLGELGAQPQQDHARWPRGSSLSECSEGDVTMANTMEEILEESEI

B1: mTA 70: GLP-2 (J) and L5 (peptide)
peptide: HGDGSFSDEMCTILDNLCARDFINWLIQTKITDPSSGAPPPS
modifications: linker 11-18 via L5; also: staple L5 carries C18 diacid-Lys-PEG2-ornithine lipid
B2: mTA 61: GLP-2 (H) and L3 (peptide)
peptide: B1 peptide with C11N, L17C, C18A, N24C
modifications: linker 17-24 via L3; also: staple L3 carries myristic acid-PEG-PEG-ornithine lipid
B3: mTA 68: GLP-2 (J) and L3 (peptide)
peptide: B1 peptide
modifications: linker 11-18 via L3; also: staple L3 carries myristic acid-PEG-PEG-ornithine lipid
B4: mTA 63: GLP-2 (H) and L5 (peptide)
peptide: B1 peptide with C11N, L17C, C18A, N24C
modifications: linker 17-24 via L5; also: staple L5 carries C18 diacid-Lys-PEG2-ornithine lipid
B5: mTA 65: GLP-2 (I) and L3 (peptide)
peptide: B1 peptide with E9C, C11N, N16C, C18A
modifications: linker 9-16 via L3; also: staple L3 carries myristic acid-PEG-PEG-ornithine lipid

What was measured:
Assay in all cases: cell-based or functional assay
[1] = target: T3, human glucagon-like peptide 1 receptor (GLP-1R) (human, UniProt P43220 24-463)
[2] = target: human glucagon receptor (GCGR) (human, UniProt P47871 26-477)
Sequence of human glucagon receptor (GCGR) (P47871 26-477): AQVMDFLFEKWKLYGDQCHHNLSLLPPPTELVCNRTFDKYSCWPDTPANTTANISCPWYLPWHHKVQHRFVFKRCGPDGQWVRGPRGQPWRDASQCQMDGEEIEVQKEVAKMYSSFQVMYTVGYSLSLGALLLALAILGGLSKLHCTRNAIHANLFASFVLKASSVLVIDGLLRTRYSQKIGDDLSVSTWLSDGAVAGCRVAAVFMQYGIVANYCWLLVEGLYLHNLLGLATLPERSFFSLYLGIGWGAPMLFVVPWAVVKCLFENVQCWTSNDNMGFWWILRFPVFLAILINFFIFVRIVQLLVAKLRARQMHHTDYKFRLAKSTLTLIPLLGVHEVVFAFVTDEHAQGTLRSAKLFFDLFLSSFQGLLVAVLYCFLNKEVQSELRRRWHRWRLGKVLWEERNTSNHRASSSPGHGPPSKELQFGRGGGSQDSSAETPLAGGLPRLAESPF

[3] = target: T1, human Glucose-dependent insulinotropic …
[4] = target: T3, human glucagon-like peptide 1 receptor …; remark: listed apart in the source
[5] = target: T1, human Glucose-dependent insulinotropic …; remark: listed apart in the source
[6] = target: T2, human Glucagon-like peptide 2 receptor …

Binder | EC50, CRE-luciferase reporter in HEK293-GLP-2R-CRE cells [6] [nM] | other results
Y[dA]EGTFISDYSKYLDECAAKEFICWLMNTKRNRNNIA (linker 17-24 via L1) [mTA 44: GLP-1/GIP/Glucagon (A) and L1] |  | EC50, CRE-luciferase reporter in HEK293-GLP-1R-CRE cells [1]: 9.7 nM; EC50, CRE-luciferase reporter in HEK293-GCGR-CRE cells [2]: 1.6 nM; EC50, CRE-luciferase reporter in HEK293-GIPR-CRE cells [3]: 0.04 nM
Y[dA]EGTFTSDYSIYLDKCAAKEFVCWLLAGGPSSGAPPPSK (linker 17-24 via L5) [mTA 43: GLP-1/GIP (A) and L5] |  | EC50, CRE-luciferase reporter in HEK293-GLP-1R-CRE cells [4]: 0.5 nM; EC50, CRE-luciferase reporter in HEK293-GIPR-CRE cells [5]: 1.1 nM
HGDGSFSDEMNTILDNCAARDFICWLIQTKITDPSSGAPPPS (linker 17-24 via L1) [mTA 59: GLP-2 (H) and L1] | 0.064 | 
B1 | 8.8 | 
HGDGSFSDEMNTILDNCAARDFICWLIQTKITDPSSGAPPPS (linker 17-24 via L2; also: staple L2 carries myristic acid-PEG-ornithine lipid) [mTA 60: GLP-2 (H) and L2] | 0.068 | 
B2 | 0.068 | 
B3 | 0.028 | 
HGDGSFSDCMNTILDCLAARDFINWLIQTKITDPSSGAPPPS (linker 9-16 via L5; also: staple L5 carries C18 diacid-Lys-PEG2-ornithine lipid) [mTA 67: GLP-2 (I) and L5] | 3.1 | 
B4 | 2.66 | 
HGDGSFSDEMNTILDNCAARDFICWLIQTKITDPSSGAPPPS (linker 17-24 via L6) [mTA 64: GLP-2 (H) and L6] | 0.7 | 
B5 | 0.06 | 
Y[dA]EGTFTSDYSIYLDKCAAKEFVCWLLAGGPSSGAPPPSK (linker 17-24 via L1) [mTA 40: GLP-1/GIP (A) and L1] |  | EC50, CRE-luciferase reporter in HEK293-GLP-1R-CRE cells [4]: 0.02 nM; EC50, CRE-luciferase reporter in HEK293-GIPR-CRE cells [5]: 0.02 nM
Y[dA]EGTFTSDYSIYLDKCAAKEFVCWLLAGGPSSGAPPPSK (linker 17-24 via L3) [mTA 41: GLP-1/GIP (A) and L3] |  | EC50, CRE-luciferase reporter in HEK293-GLP-1R-CRE cells [4]: 0.02 nM; EC50, CRE-luciferase reporter in HEK293-GIPR-CRE cells [5]: 0.06 nM
HGDGSFSDCMNTILDCLAARDFINWLIQTKITD (linker 9-16 via L5) [mTA 56: GLP-2 (F) and L5] | 0.77 | 
HGDGSFSDEMCTILDNLCARDFINWLIQTKITD (linker 11-18 via L1) [mTA 57: GLP-2 (G) and L1] | 0.046 | 
HGDGSFSDEMCTILDNLCARDFINWLIQTKITD (linker 11-18 via L5) [mTA 58: GLP-2 (G) and L5] | 7.98 | 
